Earlier results as cited in patent publication US7449180B2, “Macroscopic scaffold containing amphiphilic peptides encapsulating cells” (priority 2001, dated 2008).

Parameters: key: β denotes beta-sheet; α denote alpha-helix; r.c. denotes random coil
Settings: secondary structure of the peptide

Substance | Structure
n-(ADADADADARARARAR)-c [DAR32-IV] | α/β
n-AEAEAEAEAKAK-c [EAK12] | α/β
n-AEAEAEAEAKAKAKAK-c [EAK16-IV] | β
n-AEAEAHAH-c [EAH8-II] | r.c.
n-AEAEAHAHAEAEAHAH-c [EAH16-II] | β
n-AEAEAKAK-c [EAK8-II] | r.c.
n-AEAEAKAKAEAEAKAK-c [EAK16-II] | β
n-AEAKAEAK-c [EAKA8-I] | r.c.
n-AEAKAEAKAEAKAEAK-c [EAKA16-I] | β
n-FEFEFKFKFEFEFKFK-c [EFK16-II] | β
n-FEFKFEFK-c [EFK8-II] | β
n-HEHEHKHK-c [EHK8-I] | r.c.
n-HEHEHKHKHEHEHKHK-c [EHK16] | r.c.
n-KADAKADA-c [KADA8-I] | r.c.
n-KADAKADAKADAKADA-c [KADA16-I] | β
n-KAKAKAKAEAEAEAEA-c [KAE16-IV] | β
n-LELELKLK-c [ELK8-II] | r.c.
n-LELELKLKLELELKLK-c [ELK16-II] | β
n-RADARADA-c [RADA8-I] | r.c.
n-RADARADARADARADA-c [RADA16-I] | β
n-RADARGDARADARGDA-c [RGDA16-I] | r.c.
n-RAEARAEA-c [RAEA8-I] | r.c.
n-RAEARAEARAEARAEA-c [RAEA16-I] | β
n-RARADADA-c [RAD8-II] | r.c.
n-RARADADARARADADA-c [RAD16-II] | β
n-RARARARADADADADA-c [RAD16-IV] | β
n-RFRFRFRFRFRFRFRFRFRF-c [RF20*] | β
n-VEVEVEVEVEVEVEVEVEVE-c [VE20*] | β
